Source: paper PMC2731897

Biological target: T1, Mycobacterium tuberculosis GroEL1 (Rv3417c) without (His)6 tag (Mycobacterium tuberculosis), P9WPE9
T1 chain: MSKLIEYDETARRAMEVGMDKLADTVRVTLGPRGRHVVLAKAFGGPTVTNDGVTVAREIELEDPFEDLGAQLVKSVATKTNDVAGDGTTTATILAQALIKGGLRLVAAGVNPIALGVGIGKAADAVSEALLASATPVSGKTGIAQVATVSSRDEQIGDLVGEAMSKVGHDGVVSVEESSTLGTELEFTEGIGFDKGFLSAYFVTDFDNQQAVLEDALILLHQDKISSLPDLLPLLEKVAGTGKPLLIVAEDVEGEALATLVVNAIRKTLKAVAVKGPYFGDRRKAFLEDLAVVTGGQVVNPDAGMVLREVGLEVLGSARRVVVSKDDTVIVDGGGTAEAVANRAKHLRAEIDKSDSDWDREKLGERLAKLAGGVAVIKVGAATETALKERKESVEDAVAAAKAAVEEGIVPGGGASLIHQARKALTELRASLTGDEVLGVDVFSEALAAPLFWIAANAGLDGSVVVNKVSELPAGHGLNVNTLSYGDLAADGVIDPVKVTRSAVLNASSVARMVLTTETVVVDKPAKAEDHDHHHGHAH
Experiment: SEC
Conditions: remark: other sources report otherwise

B1: Mycobacterium tuberculosis GroEL1 (Rv3417c) without (His)6 tag, P9WPE9 1-539 (natural protein)
chain: MSKLIEYDETARRAMEVGMDKLADTVRVTLGPRGRHVVLAKAFGGPTVTNDGVTVAREIELEDPFEDLGAQLVKSVATKTNDVAGDGTTTATILAQALIKGGLRLVAAGVNPIALGVGIGKAADAVSEALLASATPVSGKTGIAQVATVSSRDEQIGDLVGEAMSKVGHDGVVSVEESSTLGTELEFTEGIGFDKGFLSAYFVTDFDNQQAVLEDALILLHQDKISSLPDLLPLLEKVAGTGKPLLIVAEDVEGEALATLVVNAIRKTLKAVAVKGPYFGDRRKAFLEDLAVVTGGQVVNPDAGMVLREVGLEVLGSARRVVVSKDDTVIVDGGGTAEAVANRAKHLRAEIDKSDSDWDREKLGERLAKLAGGVAVIKVGAATETALKERKESVEDAVAAAKAAVEEGIVPGGGASLIHQARKALTELRASLTGDEVLGVDVFSEALAAPLFWIAANAGLDGSVVVNKVSELPAGHGLNVNTLSYGDLAADGVIDPVKVTRSAVLNASSVARMVLTTETVVVDKPAKAEDHDHHHGHAH
In the case of B1, the stoichiometry N is reported as 2.
